The experiment addresses HIV-1 gp120 (HIV-1). Put plainly: ELISA, coated gp120; binding relative to scytovirin. In general terms: ELISA stands for enzyme-linked immunosorbent assay.

This passage reports percent binding in comparison to scytovirin results from US20080311125A1.

Turning to “SD2 (residues 49-95 of scytovirin with a substitution of serine at position 55) (peptide)”, the percent binding in comparison to scytovirin is 50%.
